From paper PMC4258113 (Journal of proteome research, 2013)
Where no end group is shown, it is not given here. Me3 = trimethyl-lysine (trimethylated lysine)

T1: GST-tagged chromodomain (a.a. 1-90) of Drosophila melanogaster polycomb protein (Drosophila melanogaster, UniProt P26017 1-90)
T1 sequence (looked up): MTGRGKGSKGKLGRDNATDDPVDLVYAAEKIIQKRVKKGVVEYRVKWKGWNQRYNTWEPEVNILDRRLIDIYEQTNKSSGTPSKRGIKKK


Target: T1, GST-tagged chromodomain (a.a. 1-90) of …
Test: peptide or protein array

binding result	Binder
binds	LATKAARK(Me3)S [trimethylated histone peptide LATKAARKS (H3.3, lysine site 27)]
binds	GGAKRHRK(Me3)V [trimethylated histone peptide GGAKRHRKV (H4, lysine site 20)]
binds	DSGKAKAK(Me3)A [trimethylated histone peptide DSGKAKAKA (H2AV, lysine site 15)]
binds	PRKQLATK(Me3)A [trimethylated histone peptide PRKQLATKA (H3.3, lysine site 23)]
binds	GRIHRHLK(Me3)S [trimethylated histone peptide GRIHRHLKS (H2AZ, lysine site 37)]
binds	ASKDLKVK(Me3)R [trimethylated histone peptide ASKDLKVKR (H2AZ, H2AV, lysine site 79)]
binds	REIRRYQK(Me3)S [trimethylated histone peptide REIRRYQKS (H3.3, lysine site 56)]
binds	RIHRLLRK(Me3)G [trimethylated histone peptide RIHRLLRKG (H2A1A, lysine site 35)]
binds	RTKQTARK(Me3)S [trimethylated histone peptide RTKQTARKS (H3.3, lysine site 9)]
binds	MDVVYALK(Me3)R [trimethylated histone peptide MDVVYALKR (H4, lysine site 91)]
binds	EGTKAVTK(Me3)Y [trimethylated histone peptide EGTKAVTKY (H2B1A and other H2B, lysine site 117)]
binds	IQAVLLPK(Me3)K [trimethylated histone peptide IQAVLLPKK (H2A1 and other H2A, lysine site 117)]
